Molecular target: GII.4 P-domain (crystallisation construct) (human norovirus GII.4)
Assay: crystal structure; P-domain and Fab mixed 1:1.5, complex isolated by gel filtration; crystals in 0.1 M BIS-TRIS propane pH 8.5, 0.2 M KSCN, 20% w/v PEG 3350, 20 °C

“GII.4 P-domain (crystallisation construct) (domain or fragment)” showed a stoichiometry N of 2.

— PMC8280134
